# Measurements as given in patent US20230151069A1, “Cyclic Peptides” (LIFEARC, priority 2020, published 2023).
# Experiments:
# 5XFAD mice [1] = assay: Active immunisation, 18F-Florbetaben-PET/MRI amyloid-plaque imaging in 5XFAD mice; assay type: in vivo, mouse; settings: immunized 5XFAD mice, cortex, hippocampus and amygdala
# Description: 5XFAD mice were immunized at 6 weeks of age for 12 weeks with antigen [Thioacetal bridged amyloid-beta peptide 1-14—KLH conjugate; DAC*[…]*HH[Cys]-amide (*S—CH—S bridged, cyclised via positions 3 and 12)] emulsified in complete Freund's adjuvant (CFA), followed by booster doses of protein emulsified in incomplete Freund's adjuvant (IFA). Mice were acclimated at our facility for at least 7 days before immunization. Mice were injected with antigen emulsified in CFA subcutaneously at two sites on the back, injecting 0.05 to 0.1 mL at each site (total of 0.1 to 0.2 mL per mouse).
# Booster injections of antigen emulsified in IFA was administered at day 14, day 28, day 42 and 10 weeks after immunization with antigen/CFA emulsion. The booster is given as a single subcutaneous injection with 0.1 mL of IFA emulsion, at one site on the back. […]
# All images were analyzed using PMOD v3.9 (PMOD Technologies, Switzerland) as described before (Bouter et al). […] PET VOI statistics (kBq/cc) were generated for all brain areas and standardized uptake values (SUVs) were calculated [SUV=tissue activity concentration average (kBq/cc)×body weight (g)/injected dose (kBq)] for semi-quantitative analysis. SUVs of 18F-FDG-PET scans were corrected for measured blood glucose levels [SUVGIc=SUV x blood glucose level (mg/dl)]. […]
# 5XFAD mice [2] = assay: Active immunisation, plaque load by immunohistochemistry in 5XFAD brain sections; assay type: in vivo; settings: 5XFAD mouse cortex, FIG. 29
# Description: 5XFAD mice were immunized with antigen [Thioacetal bridged amyloid-beta peptide 1-14—KLH conjugate; DAC*[…]*HH[Cys]-amide (*S—CH—S bridged, cyclised via positions 3 and 12)] as described previously.
# Mice were sacrificed via CO2 anesthetization followed by cervical dislocation. Brain samples were carefully dissected and post-fixed in 4% phosphate-buffered formalin at 4° C. Human and mouse tissue samples were processed as previously described 4. In brief, 4 μm paraffin sections were deparaffinized in xylene, followed by rehydration in a series of ethanol. […] Non-specific binding sites were blocked by treatment with skim milk and fetal calf serum in PBS, prior to the addition of the primary antibodies. The following antibodies were used: polyclonal antibody 24311 against […], monoclonal antibody 1-57 against pyroglumatate Aβ3-X, (Synaptic Sytems, GOttingen, Germany; 1 mg/ml; 1:500), and TAP01_4 (1:200; 2 mg/ml). Corresponding biotinylated secondary anti-human and anti-mouse antibodies (1:200) were purchased from DAKO (Glostrup, Denmark). Staining was visualized using the ABC method, with a Vectastain kit (Vector Laboratories, Burlingame, USA) and diaminobenzidine (DAB) as chromogen. Counterstaining was carried out with hematoxylin.
# Plaque load was quantified as previously described (G. Antonios et al., Alzheimer therapy with an antibody against N-terminal Abeta 4-X and pyroglutamate Abeta 3-X. Scientific reports 5, 17338 (2015)). 5-6 paraffin embedded sections, which were at least 80 μm afar from each other, were stained simultaneously with DAB as chromogen. For Thioflavin S fluorescent staining tissue sections were deparaffinized and rehydrated, washed twice in deionized water and then treated with 1% (w/v) ThioflavinS in aqueous solution and counterstained in a 1% (w/v) aqueous solution of 4′6-diamidin-2-phenylindol. The relative Aβ load was evaluated using an Olympus BX-51 microscope equipped with an Olympus DP-50 camera and the ImageJ software (NIH, USA). Representative pictures of 100× magnification were systematically captured. […]
# [3] = tested on: full-length amyloid-beta 1-42; assay: Reactivity of antibodies induced by the cyclic peptide with full-length amyloid-beta; assay type: in vivo; settings: antibodies induced by immunisation
# Description: • 1. Coat 384-well plate with 30 μL/well of 100 ng/ml PSL amyloid 1-42 peptide (Human-Peptide Specialty Laboratories-CEM1904161) diluted in carb/bicarb buffer • 2. Incubate at 37° C. for 1 hour • 3. Wash the plate (NUNC 384 program) • 4. […] Incubate at 4° C. overnight • 6. Wash the plate (NUNC 384 program) • 7. […] Transfer 30 μL/well onto the assay plate • 10. Incubate at 37° C. for 1 hour • 11. Wash the plate (NUNC 384 program) • 12. […] Incubate at 37° C. for 1 hour • 14. Wash the plate (NUNC 384 program) • 15. […] Incubate at RT for 10 min in the dark • 17. […] Coat 384-well plate with 30 μL/well of 100 ng/ml PSL amyloid pE3-42 peptide (Human-Peptide Specialty Laboratories-CEM062210 Pyr) diluted in carb/bicarb buffer • 2. Incubate at 37° C. for 1 hour • 3. Wash the plate (NUNC 384 program) • 4. […] Incubate at 4° C. overnight • 6. Wash the plate (NUNC 384 program) • 7. […] Transfer 30 μL/well onto the assay plate • 10. Incubate at 37° C. for 1 hour • 11. Wash the plate (NUNC 384 program) • 12. […] Incubate at 37° C. for 1 hour • 14. Wash the plate (NUNC 384 program) • 15. […] Incubate at RT for 10 min in the dark • 17.
substance,measurement,setting,value
"DAC*FRHDSGYEC*HH[Cys]-amide (*S—CH—S bridged, cyclised via positions 3 and 12)",amyloid-plaque signal (fluorbetaben retention),5XFAD mice [1],drastically reduced
same,"amyloid-plaque load in brain tissue (pan-Abeta, pyroglutamate Aβ3-X, Thioflavin S, N-truncated Aβ stainings)",5XFAD mice [2]; listed as 3-12 linked Aβ1-14 cyclic peptide,reduction in amyloid-plaque load
same,"amyloid-plaque load in brain tissue (pan-Abeta, pyroglutamate Aβ3-X, Thioflavin S, N-truncated Aβ stainings)",5XFAD mice [2]; listed as cyclised Aβ peptides,strong reduction of plaques
same,"amyloid-plaque load in brain tissue (pan-Abeta, pyroglutamate Aβ3-X, Thioflavin S, N-truncated Aβ stainings)",5XFAD mice [2]; listed as cyclized Aβ peptide,significant reduction in plaque load
same,reactivity of induced antibodies with full-length amyloid-beta 1-42,[3],do not react
